{
  "source": "paper PMC6286387",
  "about": "“Physical and thermodynamic characterization of the rice gibberellin receptor/gibberellin/DELLA protein complex” (Scientific Reports, 2018)",
  "molecules": {"B1": {"name": "SLR1(M28-A112) ΔSPACE(G69-F83) (domain or fragment, rice (Oryza sativa), UniProt Q7G7J6 28-112, looked up)", "chain": "MAGAAGEEEDVDELLAALGYKVRSSDMADVAQKLEQLEMAMVSHLATDTVHYNPSDLSSWVESMLSELNA", "notes": "DELLA protein SLR1 of rice (Oryza sativa), residues M28-A112 with G69-F83 deleted; Named without Trx in the ITC experiments; removal of the tag is told in general in the methods; also called SLR(M28-A112)ΔSPACE; source: E. coli, purified (HiTrap Chelating, Superdex 200; thrombin, HiTrap Chelating, Superdex 75); not shown: Trx, N-terminal, cleaved; His6, N-terminal, cleaved"}, "B2": {"name": "Trx-SLR1(M1-E104) (domain or fragment, rice (Oryza sativa), UniProt Q7G7J6 1-104, looked up)", "chain": "MKREYQEAGGSSGGGSSADMGSCKDKVMAGAAGEEEDVDELLAALGYKVRSSDMADVAQKLEQLEMAMGMGGVSAPGAADDGFVSHLATDTVHYNPSDLSSWVE", "notes": "DELLA protein SLR1 of rice (Oryza sativa), residues M1-E104; Thioredoxin-hexahistidine fusion from the vector pDEST-trx; source: E. coli, purified (HiTrap Chelating, Superdex 200); not shown: Trx, N-terminal, kept; His6, N-terminal, kept"}, "B3": {"name": "Trx-SLR1(M1-L110) (domain or fragment, rice (Oryza sativa), UniProt Q7G7J6 1-110, looked up)", "chain": "MKREYQEAGGSSGGGSSADMGSCKDKVMAGAAGEEEDVDELLAALGYKVRSSDMADVAQKLEQLEMAMGMGGVSAPGAADDGFVSHLATDTVHYNPSDLSSWVESMLSEL", "notes": "DELLA protein SLR1 of rice (Oryza sativa), residues M1-L110; Thioredoxin-hexahistidine fusion from the vector pDEST-trx; source: E. coli, purified (HiTrap Chelating, Superdex 200); not shown: Trx, N-terminal, kept; His6, N-terminal, kept"}, "B4": {"name": "SLR1(M1-A172) (domain or fragment, rice (Oryza sativa), UniProt Q7G7J6 1-172, looked up)", "chain": "MKREYQEAGGSSGGGSSADMGSCKDKVMAGAAGEEEDVDELLAALGYKVRSSDMADVAQKLEQLEMAMGMGGVSAPGAADDGFVSHLATDTVHYNPSDLSSWVESMLSELNAPLPPIPPAPPAARHASTSSTVTGGGGSGFFELPAAADSSSSTYALRPISLPVVATADPSA", "notes": "DELLA protein SLR1 of rice (Oryza sativa), residues M1-A172; Named without Trx in the ITC experiments; removal of the tag is told in general in the methods; also called SLR(M1-A172); source: E. coli, purified (HiTrap Chelating, Superdex 200; thrombin, HiTrap Chelating, Superdex 75); not shown: Trx, N-terminal, cleaved; His6, N-terminal, cleaved"}, "B5": {"name": "Trx-SLR1(M28-A112) (domain or fragment, rice (Oryza sativa), UniProt Q7G7J6 28-112, looked up)", "chain": "MAGAAGEEEDVDELLAALGYKVRSSDMADVAQKLEQLEMAMGMGGVSAPGAADDGFVSHLATDTVHYNPSDLSSWVESMLSELNA", "notes": "DELLA protein SLR1 of rice (Oryza sativa), residues M28-A112; theoretical monomeric MW of the fusion 29.3 kDa; Thioredoxin-hexahistidine fusion from the vector pDEST-trx; source: E. coli, purified (HiTrap Chelating, Superdex 200); not shown: Trx, N-terminal, kept; His6, N-terminal, kept"}, "B6": {"name": "SLR1(M28-A112), Trx-free (domain or fragment, rice (Oryza sativa), UniProt Q7G7J6 28-112, looked up)", "chain": "MAGAAGEEEDVDELLAALGYKVRSSDMADVAQKLEQLEMAMGMGGVSAPGAADDGFVSHLATDTVHYNPSDLSSWVESMLSELNA", "notes": "DELLA protein SLR1 of rice (Oryza sativa), residues M28-A112; 13C/15N-labelled for the NMR spectra; also called SLR(M28-A112); source: E. coli, purified (HiTrap Chelating, Superdex 200; thrombin, HiTrap Chelating, Superdex 75); not shown: Trx, N-terminal, cleaved; His6, N-terminal, cleaved"}, "B7": {"name": "SLR1(M1-H327) (domain or fragment, rice (Oryza sativa), UniProt Q7G7J6 1-327, looked up)", "chain": "MKREYQEAGGSSGGGSSADMGSCKDKVMAGAAGEEEDVDELLAALGYKVRSSDMADVAQKLEQLEMAMGMGGVSAPGAADDGFVSHLATDTVHYNPSDLSSWVESMLSELNAPLPPIPPAPPAARHASTSSTVTGGGGSGFFELPAAADSSSSTYALRPISLPVVATADPSAADSARDTKRMRTGGGSTSSSSSSSSSLGGGASRGSVVEAAPPATQGAAAANAPAVPVVVVDTQEAGIRLVHALLACAEAVQQENFAAAEALVKQIPTLAASQGGAMRKVAAYFGEALARRVYRFRPADSTLLDAAFADLLHAHFYESCPYLKFAH", "notes": "DELLA protein SLR1 of rice (Oryza sativa), residues M1-H327; Named without Trx in the ITC experiments; removal of the tag is told in general in the methods; also called SLR(M1-H327); source: E. coli, purified (HiTrap Chelating, Superdex 200; thrombin, HiTrap Chelating, Superdex 75); not shown: Trx, N-terminal, cleaved; His6, N-terminal, cleaved"}},
  "key": {"OsGID1": {"molecular_target": "T1, OsGID1 (Oryza sativa, UniProt Q6L545)", "T1 construct": "gene GID1; recombinant, purified", "T1 sequence (Q6L545 1-354)": "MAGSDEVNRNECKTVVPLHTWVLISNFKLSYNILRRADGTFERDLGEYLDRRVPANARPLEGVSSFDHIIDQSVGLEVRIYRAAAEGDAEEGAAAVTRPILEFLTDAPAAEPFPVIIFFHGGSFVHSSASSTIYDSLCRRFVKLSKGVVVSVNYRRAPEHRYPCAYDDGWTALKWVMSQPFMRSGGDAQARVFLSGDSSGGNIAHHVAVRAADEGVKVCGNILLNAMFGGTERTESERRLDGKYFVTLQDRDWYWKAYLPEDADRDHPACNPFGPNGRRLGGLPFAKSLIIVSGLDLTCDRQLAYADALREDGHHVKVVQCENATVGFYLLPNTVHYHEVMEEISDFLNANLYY", "assay": "(method not stated for the binary complex)", "type": "binding", "settings": "read-out: Kb (converted)"}, "[1]": {"molecular_target": "T2, OsGID1 (rice gibberellin receptor GID1), Trx-free, used as the OsGID1/GA3 complex (rice (Oryza sativa), UniProt Q6L545 1-354)", "T2 construct": "Gibberellin receptor GID1 of rice (Oryza sativa); theoretical MW of the dimer printed as 79.2 kDa; The printed mass (39.6 kDa a monomer) fits the whole protein; source: recombinant, purified", "T2 sequence (looked up)": "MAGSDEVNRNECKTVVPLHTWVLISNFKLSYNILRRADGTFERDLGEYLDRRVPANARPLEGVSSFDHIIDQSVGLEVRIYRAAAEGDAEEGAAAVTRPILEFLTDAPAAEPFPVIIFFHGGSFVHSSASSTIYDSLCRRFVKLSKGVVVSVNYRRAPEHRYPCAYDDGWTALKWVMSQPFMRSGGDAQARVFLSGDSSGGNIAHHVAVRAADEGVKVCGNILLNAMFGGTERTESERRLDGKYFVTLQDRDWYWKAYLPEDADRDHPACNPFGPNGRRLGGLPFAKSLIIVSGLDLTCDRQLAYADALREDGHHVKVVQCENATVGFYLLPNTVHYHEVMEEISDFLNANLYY", "assay": "ITC; 10 μl aliquants of 400 μM OsGID1/GA3 into 1.4482 ml of 50 μM SLR1 variant, 30 °C, 20 mM sodium phosphate (pH 7.5), 150 mM NaCl, 2.0 mM β-ME, 0.1 mM GA3", "settings": "both partners purified"}, "[2]": {"molecular_target": "the molecule itself", "assay": "SEC; each protein chromatographed alone on Superdex 200 10/300 GL, 20 mM sodium phosphate (pH 7.5), 150 mM NaCl, 2 mM β-ME, 0.1 mM GA3; size against molecular weight standards"}, "[3]": {"molecular_target": "T3, Trx-OsGID1, used as the Trx-OsGID1/GA3 complex (rice (Oryza sativa), UniProt Q6L545 1-354)", "T3 construct": "Gibberellin receptor GID1 of rice (Oryza sativa); GA3 (0.1 mM) was present in the gel filtration; also called Trx-GID1/GA3; source: recombinant, purified", "T3 sequence (looked up)": "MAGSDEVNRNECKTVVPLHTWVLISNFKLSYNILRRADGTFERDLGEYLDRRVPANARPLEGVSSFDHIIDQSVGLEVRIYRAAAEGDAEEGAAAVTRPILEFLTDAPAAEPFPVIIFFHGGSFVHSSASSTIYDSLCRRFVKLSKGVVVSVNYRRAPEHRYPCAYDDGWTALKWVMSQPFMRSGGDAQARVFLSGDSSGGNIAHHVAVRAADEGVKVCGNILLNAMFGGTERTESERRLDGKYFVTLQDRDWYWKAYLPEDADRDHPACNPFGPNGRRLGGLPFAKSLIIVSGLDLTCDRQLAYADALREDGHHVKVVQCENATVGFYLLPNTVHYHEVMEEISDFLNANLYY", "assay": "SEC; purified Trx-OsGID1 and a Trx-SLR1 truncation mutant incubated together at 4 °C for 30 min with 10^-4 M GA3; Superdex 200 10/300 GL in 20 mM sodium phosphate (pH 7.5), 150 mM NaCl, 2 mM β-ME, 0.1 mM GA3; fractions on SDS-PAGE", "settings": "both partners purified"}, "[4]": {"molecular_target": "the molecule itself", "assay": "ITC; dilution series: 10 μl aliquants of 0.4 mM SLR1(M28-A112) into 1.4482 ml of buffer without OsGID1/GA3, 30 °C; dimer to monomers"}, "[5]": {"molecular_target": "T2, OsGID1 (rice gibberellin receptor …)", "assay": "ITC; twenty 10 μl injections of 400 μM SLR1(M28-A112) into 50 μM OsGID1/GA3, 30 °C, 20 mM sodium phosphate (pH 7.5), 150 mM NaCl, 2.0 mM β-ME, 0.1 mM GA3", "settings": "both partners purified"}, "[6]": {"molecular_target": "T2, OsGID1 (rice gibberellin receptor …)", "assay": "ITC; 10 μl aliquants of 400 μM OsGID1/GA3 into 1.4482 ml of 50 μM SLR1 variant, 30 °C, 20 mM sodium phosphate (pH 7.5), 150 mM NaCl, 2.0 mM β-ME, 0.1 mM GA3", "settings": "both partners purified", "remark": "listed apart in the source"}},
  "data": [
    {"molecule": "C=C1C[C@]23C[C@H]1CC[C@H]2[C@@]12C=C[C@H](O)[C@@](C)(C(=O)O1)[C@H]2[C@@H]3C(=O)O", "note": "[GA7]", "values": [
      {"measurement": "Kd", "setting": "OsGID1", "result": 0.238, "unit": "µM"}
    ]},
    {"molecule": "C=C1C[C@]23C[C@@]1(O)CC[C@H]2[C@@]12CC[C@H](O)[C@@](C)(C(=O)O1)[C@H]2[C@@H]3C(=O)O", "note": "[GA1]", "values": [
      {"measurement": "Kd", "setting": "OsGID1", "result": 1.92, "unit": "µM"}
    ]},
    {"molecule": "C=C1C[C@]23C[C@@]1(O)CC[C@H]2[C@@]12C=C[C@H](O)[C@@](C)(C(=O)O1)[C@H]2[C@@H]3C(=O)O", "note": "[GA3]", "values": [
      {"measurement": "Kd", "setting": "OsGID1", "result": 3.57, "unit": "µM"}
    ]},
    {"molecule": "C=C1C[C@]23C[C@H]1CC[C@H]2[C@@]12CC[C@H](O)[C@@](C)(C(=O)O1)[C@H]2[C@@H]3C(=O)O", "note": "[GA4]", "values": [
      {"measurement": "Kd", "setting": "OsGID1", "result": 0.192, "unit": "µM"}
    ]},
    {"molecule": "B1", "values": [
      {"measurement": "Ka", "setting": "[1]", "result": 390000, "unit": "M⁻¹"}
    ]},
    {"molecule": "B2", "values": [
      {"measurement": "stoichiometry N", "setting": "[2]", "result": 2}
    ]},
    {"molecule": "B3", "values": [
      {"measurement": "binding result", "setting": "[3]", "result": "binds"},
      {"measurement": "binding result", "setting": "[2]", "result": "binds"}
    ]},
    {"molecule": "B4", "values": [
      {"measurement": "Ka", "setting": "[1]", "result": "2.8e+07", "unit": "M⁻¹"}
    ]},
    {"molecule": "B5", "values": [
      {"measurement": "stoichiometry N", "setting": "[3]", "result": 1},
      {"measurement": "stoichiometry N", "setting": "[2]", "result": 2}
    ]},
    {"molecule": "B6", "values": [
      {"measurement": "Kd", "setting": "[4]", "result": 1600, "unit": "µM"},
      {"measurement": "dH", "setting": "[4]", "result": -66, "unit": "kcal/mol"},
      {"measurement": "Ka", "setting": "[1]", "result": "2.9e+07", "unit": "M⁻¹"},
      {"measurement": "Ka", "setting": "[5]", "result": "1.2e+07", "unit": "M⁻¹"},
      {"measurement": "dH", "setting": "[5]", "result": -8.75, "unit": "kcal/mol"},
      {"measurement": "stoichiometry N", "setting": "[5]", "result": 0.88},
      {"measurement": "Ka", "setting": "[6]", "result": "1.1e+07", "unit": "M⁻¹"}
    ]},
    {"molecule": "B7", "values": [
      {"measurement": "Ka", "setting": "[1]", "result": "2e+06", "unit": "M⁻¹"}
    ]}
  ]
}
